{
  "source": "paper PMC12209930",
  "about": "“A TATA-box-binding protein binds single-stranded DNA in two modes: To poly(G) tracts and to flexible DNA regions”",
  "key": {"gTBP (GST-gTBP) [1]": {"biological_target": "T1, gTBP (GST-gTBP) (Giardia intestinalis WB C6 (ATCC 50803), UniProt E2RU70 1-200)", "T1 sequence": "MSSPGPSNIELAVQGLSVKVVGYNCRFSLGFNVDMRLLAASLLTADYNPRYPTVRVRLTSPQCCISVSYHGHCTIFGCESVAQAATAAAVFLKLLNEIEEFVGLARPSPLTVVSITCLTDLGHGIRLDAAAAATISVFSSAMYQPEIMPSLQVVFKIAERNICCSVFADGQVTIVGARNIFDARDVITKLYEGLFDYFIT", "test": "EMSA; A complex; total binding, Hill fit; 10 mM Tris-HCl pH 8.0, 0.15 M NaCl, 0.5 mM TCEP, 5% glycerol, 1 ug/ul BSA, 15 ng/ul salmon sperm DNA, 30 min on ice; probe 0.1 pmol/ul, competitor 200-fold excess", "settings": "protein: recombinant; tags: N-terminal GST; label: 5'Cy5"}, "gTBP (GST-gTBP) [2]": {"biological_target": "T1, gTBP (GST-gTBP)", "test": "competition; vs H2B-b probe; 10 mM Tris-HCl pH 8.0, 0.15 M NaCl, 0.5 mM TCEP, 5% glycerol, 1 ug/ul BSA, 15 ng/ul salmon sperm DNA, 30 min on ice; probe 0.1 pmol/ul, competitor 200-fold excess", "settings": "protein: recombinant; tags: N-terminal GST"}, "gTBP (GST-gTBP) [3]": {"biological_target": "T1, gTBP (GST-gTBP)", "test": "competition; vs H4-b and H2B-b probes; 10 mM Tris-HCl pH 8.0, 0.15 M NaCl, 0.5 mM TCEP, 5% glycerol, 1 ug/ul BSA, 15 ng/ul salmon sperm DNA, 30 min on ice; probe 0.1 pmol/ul, competitor 200-fold excess", "settings": "protein: recombinant; tags: N-terminal GST"}, "gTBP (GST-gTBP) [4]": {"biological_target": "T1, gTBP (GST-gTBP)", "test": "EMSA; B1+B2 complexes; Hill n about 2; 10 mM Tris-HCl pH 8.0, 0.15 M NaCl, 0.5 mM TCEP, 5% glycerol, 1 ug/ul BSA, 15 ng/ul salmon sperm DNA, 30 min on ice; probe 0.1 pmol/ul, competitor 200-fold excess", "settings": "protein: recombinant; tags: N-terminal GST; label: 5'Cy5 (probe)"}, "gTBP (GST-gTBP) [5]": {"biological_target": "T1, gTBP (GST-gTBP)", "test": "competition; vs H2B-a probe; better than L; 10 mM Tris-HCl pH 8.0, 0.15 M NaCl, 0.5 mM TCEP, 5% glycerol, 1 ug/ul BSA, 15 ng/ul salmon sperm DNA, 30 min on ice; probe 0.1 pmol/ul, competitor 200-fold excess", "settings": "protein: recombinant; tags: N-terminal GST"}, "gTBP (GST-gTBP) [6]": {"biological_target": "T1, gTBP (GST-gTBP)", "test": "competition; vs H2B-a probe; 10 mM Tris-HCl pH 8.0, 0.15 M NaCl, 0.5 mM TCEP, 5% glycerol, 1 ug/ul BSA, 15 ng/ul salmon sperm DNA, 30 min on ice; probe 0.1 pmol/ul, competitor 200-fold excess", "settings": "protein: recombinant; tags: N-terminal GST"}, "gTBP (GST-gTBP) [7]": {"biological_target": "T1, gTBP (GST-gTBP)", "test": "competition; vs H2B-a and H4-a; annealed in Na+ and K+; 10 mM Tris-HCl pH 8.0, 0.15 M NaCl, 0.5 mM TCEP, 5% glycerol, 1 ug/ul BSA, 15 ng/ul salmon sperm DNA, 30 min on ice; probe 0.1 pmol/ul, competitor 200-fold excess", "settings": "protein: recombinant; tags: N-terminal GST"}, "gTBP (GST-gTBP) [8]": {"biological_target": "T1, gTBP (GST-gTBP)", "test": "competition; vs H4-b probe; 10 mM Tris-HCl pH 8.0, 0.15 M NaCl, 0.5 mM TCEP, 5% glycerol, 1 ug/ul BSA, 15 ng/ul salmon sperm DNA, 30 min on ice; probe 0.1 pmol/ul, competitor 200-fold excess", "settings": "protein: recombinant; tags: N-terminal GST"}, "gTBP (GST-gTBP) [9]": {"biological_target": "T1, gTBP (GST-gTBP)", "test": "competition; vs H2B-b probe; less well than H2B S1; 10 mM Tris-HCl pH 8.0, 0.15 M NaCl, 0.5 mM TCEP, 5% glycerol, 1 ug/ul BSA, 15 ng/ul salmon sperm DNA, 30 min on ice; probe 0.1 pmol/ul, competitor 200-fold excess", "settings": "protein: recombinant; tags: N-terminal GST"}},
  "data": [
    {"binder": "H4-a (ssDNA) DNA: GTAGGGCGCAGATTTGGGCTAAAAAAGAAGACGCGGGAAGGGGCAAATAAAAATG", "values": [
      {"measurement": "Kd", "setting": "gTBP (GST-gTBP) [1]", "value": 500, "unit": "µM"}
    ]},
    {"binder": "H2B-a (ssDNA) DNA: TAGAAGTGCACAGGGGCGCAGATTTCGGCTGCGGAAGGGGGGAAAAAGCGGGCGGGAAAGAAAT", "values": [
      {"measurement": "Kd", "setting": "gTBP (GST-gTBP) [1]", "value": 7200, "unit": "µM"}
    ]},
    {"binder": "aGN-a (ssDNA) DNA: CAATTTGAGCTTCAAAAAATACCGCCAAAAAATGGCAATTCGGTTTTAAAAATG", "values": [
      {"measurement": "binding result", "setting": "gTBP (GST-gTBP) [2]", "value": "no binding"}
    ]},
    {"binder": "AAAAAAAAAAAAAAAAAAAAAAAAAAAAAA (ssDNA)", "note": "[polyA(30)]", "values": [
      {"measurement": "binding result", "setting": "gTBP (GST-gTBP) [3]", "value": "no binding"}
    ]},
    {"binder": "H4-b (ssDNA) DNA: CATTTTTATTTGCCCCTTCCCGCGTCTTCTTTTTTAGCCCAAATCTGCGCCCTAC", "values": [
      {"measurement": "Kd", "setting": "gTBP (GST-gTBP) [4]", "value": 7, "unit": "µM"}
    ]},
    {"binder": "TTTTTTTTTTTTTTTTTTTTTTTTTTTTTT (ssDNA)", "note": "[polyT(30)]", "values": [
      {"measurement": "binding result", "setting": "gTBP (GST-gTBP) [3]", "value": "binds"}
    ]},
    {"binder": "H2B-b (ssDNA) DNA: ATTTCTTTCCCGCCCGCTTTTTCCCCCCTTCCGCAGCCGAAATCTGCGCCCCTGTGCACTTCTA", "values": [
      {"measurement": "Kd", "setting": "gTBP (GST-gTBP) [4]", "value": 5, "unit": "µM"}
    ]},
    {"binder": "TAGAAGTGCACAGGGGGGCAGATTTCGGCTGC (ssDNA)", "note": "[H2B-a L1]", "values": [
      {"measurement": "binding result", "setting": "gTBP (GST-gTBP) [5]", "value": "binds"}
    ]},
    {"binder": "CTGCGGAAGGGGGGAAAAAGCGGGCGGGAAAGAAAT (ssDNA)", "note": "[H2B-a Right (R)]", "values": [
      {"measurement": "binding result", "setting": "gTBP (GST-gTBP) [5]", "value": "binds"}
    ]},
    {"binder": "CTGCGGTTGGGGGGTTTTAGCGGGCGGGAAAGAAAT (ssDNA)", "note": "[H2B-a R3]", "values": [
      {"measurement": "binding result", "setting": "gTBP (GST-gTBP) [6]", "value": "binds"}
    ]},
    {"binder": "TAGGGTAGGGTAGGGTAGGG (structured_DNA)", "note": "[Giardia telomere (Gia)]", "values": [
      {"measurement": "binding result", "setting": "gTBP (GST-gTBP) [7]", "value": "binds"}
    ]},
    {"binder": "GGGTTAGGGTTAGGGTTAGGGT (structured_DNA)", "note": "[Human-1 telomere (Hu1)]", "values": [
      {"measurement": "binding result", "setting": "gTBP (GST-gTBP) [7]", "value": "binds"}
    ]},
    {"binder": "GGGGTTTTGGGGTTTTGGGGTTTTGGGG (structured_DNA)", "note": "[Oxytricha telomere (Oxy)]", "values": [
      {"measurement": "binding result", "setting": "gTBP (GST-gTBP) [7]", "value": "binds"}
    ]},
    {"binder": "CATTTTTATTTGCCCCTTCCCGCGTCTT (ssDNA)", "note": "[H4 L]", "values": [
      {"measurement": "binding result", "setting": "gTBP (GST-gTBP) [8]", "value": "binds"}
    ]},
    {"binder": "CCTTCCCGCGTCTTCTTTTTTAGCCCAA (ssDNA)", "note": "[H4 C]", "values": [
      {"measurement": "binding result", "setting": "gTBP (GST-gTBP) [8]", "value": "binds"}
    ]},
    {"binder": "CTTTTTTAGCCCAAATCTGCGCCCTAC (ssDNA)", "note": "[H4 R]", "values": [
      {"measurement": "binding result", "setting": "gTBP (GST-gTBP) [8]", "value": "binds"}
    ]},
    {"binder": "ATTTCTTTCCCGCCCGCTTTTTCCCCCCTT (ssDNA)", "note": "[H2B L]", "values": [
      {"measurement": "binding result", "setting": "gTBP (GST-gTBP) [2]", "value": "binds"}
    ]},
    {"binder": "H4 S1 (ssDNA) DNA: ACACCCACCTGCTTCCTCTGCGCCCTTTCCCTCCAGCTTAGACCATCGCGTTCAT", "values": [
      {"measurement": "binding result", "setting": "gTBP (GST-gTBP) [8]", "value": "binds"}
    ]},
    {"binder": "H4 S2 (ssDNA) DNA: TACCTCACCTGCTTCTTCTTCGCGTTCCCTCCTCCAGCCCAAACTTGCGCCTCAT", "values": [
      {"measurement": "binding result", "setting": "gTBP (GST-gTBP) [8]", "value": "binds"}
    ]},
    {"binder": "H2B S1 (ssDNA) DNA: ACCCCTCCTTCGCTCGCTCCTTCCTTTCTCCCGCAGCCGAGACTTGCGCTTTACGTGATCC", "values": [
      {"measurement": "binding result", "setting": "gTBP (GST-gTBP) [2]", "value": "binds"}
    ]},
    {"binder": "H2B S2 (ssDNA) DNA: CACCTTCTCAGCGACGCTTCCTCTTTCCCTAGCGACGTGTAACCACGCGATTTGTGCCATC", "values": [
      {"measurement": "binding result", "setting": "gTBP (GST-gTBP) [9]", "value": "binds"}
    ]},
    {"binder": "AAAAAAAAAAAAAAAAAAAAAAAAAAAAAA (ssDNA)", "note": "[dn 1]", "values": [
      {"measurement": "binding result", "setting": "gTBP (GST-gTBP) [3]", "value": "no binding"}
    ]},
    {"binder": "AAAACTCCTCCCTTGCCGCCGTTCCCAAAA (ssDNA)", "note": "[dn 8]", "values": [
      {"measurement": "binding result", "setting": "gTBP (GST-gTBP) [3]", "value": "binds"}
    ]},
    {"binder": "AAAACTCCTCCCTTCCCGTTCTTCCCAAAA (ssDNA)", "note": "[dn 12]", "values": [
      {"measurement": "binding result", "setting": "gTBP (GST-gTBP) [3]", "value": "binds"}
    ]},
    {"binder": "AAAACTCCTCCCTTCCCTTTCTTCCCAAAA (ssDNA)", "note": "[dn 13]", "values": [
      {"measurement": "binding result", "setting": "gTBP (GST-gTBP) [3]", "value": "binds"}
    ]},
    {"binder": "AAAATTATACCTATGCCGCCGCACTCAAAA (ssDNA)", "note": "[dn 14]", "values": [
      {"measurement": "binding result", "setting": "gTBP (GST-gTBP) [3]", "value": "binds"}
    ]},
    {"binder": "AAAAATTATACCTATGCCGCACTCAAAAAA (ssDNA)", "note": "[dn 15]", "values": [
      {"measurement": "binding result", "setting": "gTBP (GST-gTBP) [3]", "value": "binds"}
    ]}
  ]
}
